The results in this text go back to US20090068174A1, “THERAPEUTIC ALKALINE PROTEASE COMPOSITIONS AND USE IN FACILITATING THE TRANSPORT OF AGENTS ACROSS THE GASTROINTESTINAL MUCOSAL LINING” (Kansas University Medical Center Research Institute, Inc., priority 2007, published 2009).

The target in one test is T1, mouse recombinant TNF-α (Mus musculus, UniProt P06804).
T1 sequence (P06804 80-235 limits assumed): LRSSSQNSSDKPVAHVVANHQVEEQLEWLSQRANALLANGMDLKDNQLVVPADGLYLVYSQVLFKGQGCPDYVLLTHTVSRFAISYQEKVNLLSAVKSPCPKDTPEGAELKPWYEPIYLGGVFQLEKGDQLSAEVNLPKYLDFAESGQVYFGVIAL
The test can be described thus: Bioactivity of protease-treated mouse TNF-α in the C2C12 cell bioassay (nitrite). The format is cell-based. More on the design: key to Inactivation of Mouse TNF-α: +: Indicates that the protease inactivated the cytokine; ^a: Cleavage of the cytokine occurred without inactivation. The settings on record: for Effect on bioactivity of mouse TNF-α: C2C12 cells, NO (nitrite) production. Here is the method: Effects of three purified A. oryzae proteases on the bioactivity of mouse TNF-α (A) protease powder prepared according to Example 1 (preparation); (B) alkaline protease; (C) 26 kDa protease; and (D) deuterolysin. 50 ng quantities of TNF-α were incubated at 37° C. for 24 hours with the indicated quantities of the protease powder prepared according to Example 1 or one of the three purified proteases. The reactions were then stopped by addition of FBS and samples were added to C2C12 cells that had been costimulated with mouse IFN-γ. Twenty-four hours later, nitrite was measured in culture fluids.
The protease powder prepared according to Example 1 inactivates mouse recombinant TNF-α. 50 ng of the cytokine was treated for 24 hours with either 0 (□); 5 (∘); or 10 ng ([…]) of either Pseudomonas elastase (A) or protease powder prepared according to Example 1 (B). Then the residual bioactivity of the cytokine was measured by its ability to co-activate mouse C2C12 myoblast cells in the presence of excess IFN-γ for the production of NO (nitrite).
The protease powder prepared according to Example 1 inactivates mouse recombinant TNF-α by limited proteolysis. (FIG. 16 A-B) This property was established by measuring the loss of activity of TNF-α in a bioassay in which the cytokine was used to coactivate mouse myoblast C2C12 cells for the production of NO by transcriptional activation of the inducible NO synthase (iNOS) gene. The assay can be used to measure either TNF-α or IFN-γ activity by adding test samples containing one of the cytokines to cells stimulated with an excess of the other cytokine. Nitrite is a stable endproduct of NO produced by the cells. […] (FIG. 16A-B).
The three purified proteases were then compared for their ability to inactivate mouse TNF-α using the C2C12 cell bioassay.

The next test concerns the target T2, human IFN-γ (Homo sapiens, UniProt P01579).
T2 sequence (P01579 24-166): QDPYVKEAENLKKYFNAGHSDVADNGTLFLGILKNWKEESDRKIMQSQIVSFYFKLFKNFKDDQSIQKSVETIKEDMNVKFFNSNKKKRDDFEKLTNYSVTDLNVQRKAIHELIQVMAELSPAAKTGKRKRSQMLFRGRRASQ
As to the kind of experiment: Human IFN-γ degradation (Western blotting). Format: biochemical. The settings on record: Western blot, antibody to carboxyl terminus. Here is the method:
Effects of the purified A. oryzae proteases on human recombinant IFN-γ: (A) protease powder prepared according to Example 1 (preparation); (B) alkaline protease; (C) deuterolysin; and (D) 26 kDa protease. 50 ng quantities of human IFN-γ were incubated at 37° C. for 18 hours with the indicated quantities of preparation, alkaline protease, 26 kDa protease or deuterolysin. Western blotting was then used to determine substrate specificity. C=control, buffer-treated IFN-γ.
Cleavage was evidenced by the disappearance of the native 17 kDa IFN-γ band, rather than the appearance of distinct cleavage peptides. Because the antibody used in this Western blot was specific for the carboxyl terminus of human IFN-γ, these enzymes attack the cytokine at the C terminus (e.g., there is a loss in reactivity with the anti-cytokine antibody, rather than the appearance of smaller peptide products).
In general terms: In western blotting, separated proteins are transferred to a membrane and probed.

The next test addresses human TNF-α (Homo sapiens, UniProt P01375). The test can be described thus: Human TNF-α hydrolysis (Western blotting). The format is biochemical. The settings on record: 50 ng cytokine with 2.5, 5, 10 ng protease, overnight at 37° C., Western blot. Here is the method: Effects of the purified A. oryzae proteases on human recombinant TNF-α: (A) protease powder prepared according to Example 1 (preparation); (B) alkaline protease; (C) 26 kDa protease; and (D) deuterolysin. 50 ng quantities of TNF-α were incubated at 37° C. for 18 hours with the indicated quantities of protease powder prepared according to Example 1, alkaline protease, 26 kDa protease or deuterolysin. Western blotting was then used to determine substrate specificity. C=control, buffer-treated TNF-α.
Human TNF-α is cleaved and inactivated by Aspergillus oryzae alkaline protease. Purified cytokine (50 ng) was first combined with the following amounts [2.5, 5, and 10 ng] of protease powder prepared according to Example 1 (preparation), as well as alkaline protease, 26 kDa protease, and deuterolysin prepared according to Example 2. Each mixture was incubated overnight at 37° C. and examined by Western blotting for evidence of proteolysis. […] Because the antibody used in this Western blot was specific for the carboxyl terminus of human TNF-α, these enzymes cleaved the cytokine at the amino terminus yielding a smaller peptide that retained the C-terminal epitope.

Test [1] is described as follows: Biochemical properties of the purified proteases (Table 4): pH optimum, substrate specificity, metal requirements. The settings on record: established by inventors.

Entries after “also recorded” stand apart in the source; their conditions may differ.

Sequence of human TNF-α (P01375 77-233 limits assumed): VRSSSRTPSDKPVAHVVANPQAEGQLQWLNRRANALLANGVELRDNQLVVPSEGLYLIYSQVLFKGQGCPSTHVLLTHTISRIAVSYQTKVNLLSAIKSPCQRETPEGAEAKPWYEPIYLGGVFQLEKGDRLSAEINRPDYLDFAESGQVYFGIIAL

B1: 26 kDa Protease: A. oryzae protease cloned recently by Novozyme, labeled the 26 kDa protease, SEQ ID NO: 3 (protein, listed as Aspergillus oryzae)
chain: HASADAWASSKAISSTSSPSSFKMRFISVSSLLLALAPALNAVPVEVAGSAQGLDVTLSQVGNTRIKAWKNTGSEDVTFVHLNFFKDAAPVQKVSLFRNATEVQFQGIKQRLITEGLSDDALTTLAPGATIEDEFDIASTSDLSEGGTITINSNGLVPITTDNKVTGYIPFTSNELSIDVDAAEAASVTQAVKILERRTKVTSCSGSRLSALQTALRNTVSLARAAATAAQSGSSSRFQEYFKTTSSSTRSTVAARLNAVANEAASTSSGSTTYYCSDVYGYCSSNVLAYTLPSYNIIANCDLYYSYLPALTSTCHAQDQATTTLHEFTHAPGVYSPGTDDLGYGYSAATALSASQALLNADTYALFANAVNLNC
On to B1, for which the “Effect on bioactivity of mouse TNF-α” value with mouse recombinant TNF-α is reported as “devoid of such activity”. Further, in the test with human IFN-γ, the “Cleavage of human IFN-γ” value is listed as “cleave human IFN-γ”. Also, the “Cleavage of human TNF-α” value in the test with human TNF-α is on record as “to a lesser extent”. Further, the Substrate specificity entry in test [1] is “protamine”.

B2: Alkaline Protease: Aspergillus oryzae alkaline protease (oryzin), SEQ ID NO: 2, purified from the protease powder of Example 1 (protein, listed as Aspergillus oryzae)
chain: MQSIKRTLLLLGAILPAVLGAPVQETRRAAEKLPGKYIVTFKPGIDEAKIQEHTTWATNIHQRSLERRGATGGDLPVGIERNYKINKFAAYAGSFDDATIEEIRKNEDVAYVEEDQIYYLDGLTTQKSAPWGLGSISHKGQQSTDYIYDTSAGEGTYAYVVDSGVNVDHEEFEGRASKAYNAAGGQHVDSIGHGTHVSGTIAGKTYGIAKKASILSVKVFQGESSSTSVILDGFNWAANDIVSKKRTSKAAINMSLGGGYSKAFNDAVENAFEQGVLSVVAAGNENSDAGQTSPASAPDAITVAAIQKSNNRASFSNFGKVVDVFAPGQDILSAWIGSSSATNTISGTSMATPHIVGLSLYLAALENLDGPAAVTKRIKELATKDWKDVKGSPNLLAYNGNA
Consider B2, for which the “Effect on bioactivity of mouse TNF-α” value with mouse recombinant TNF-α is given as “dose-dependent inactivation of mouse TNF-α”. In addition, the “Inactivation of Mouse TNF-α” value with mouse recombinant TNF-α (Table 7 summary) is on record as “+”. Moreover, the “Cleavage of human IFN-γ” value with human IFN-γ is on record as “did not cleave human IFN-γ”. Moreover, the “Cleavage of human TNF-α” value in the test with human TNF-α is “produced a similar pattern of cleavage”. The Substrate specificity entry in test [1] is reported as “Protamine > casein,; also recorded: hemoglobin; val-leu-lys”.
